In the test the target is T1, TECPR1 (purified, on GUVs) (human, UniProt Q7Z6L1 1-1165).
T1 construct: TECPR1, human, full-length cDNA of isoform 1, cloned into pCoofy29; TECPR1 could be labeled on native cysteines (Alexa Fluor 488 or CF405M); also called recombinant TECPR1; source: High Five insect cells, purified (Ni-NTA, PreScission, Superdex 200); not shown: His6, N-terminal, cleaved; MBP, N-terminal, cleaved
T1 sequence (looked up): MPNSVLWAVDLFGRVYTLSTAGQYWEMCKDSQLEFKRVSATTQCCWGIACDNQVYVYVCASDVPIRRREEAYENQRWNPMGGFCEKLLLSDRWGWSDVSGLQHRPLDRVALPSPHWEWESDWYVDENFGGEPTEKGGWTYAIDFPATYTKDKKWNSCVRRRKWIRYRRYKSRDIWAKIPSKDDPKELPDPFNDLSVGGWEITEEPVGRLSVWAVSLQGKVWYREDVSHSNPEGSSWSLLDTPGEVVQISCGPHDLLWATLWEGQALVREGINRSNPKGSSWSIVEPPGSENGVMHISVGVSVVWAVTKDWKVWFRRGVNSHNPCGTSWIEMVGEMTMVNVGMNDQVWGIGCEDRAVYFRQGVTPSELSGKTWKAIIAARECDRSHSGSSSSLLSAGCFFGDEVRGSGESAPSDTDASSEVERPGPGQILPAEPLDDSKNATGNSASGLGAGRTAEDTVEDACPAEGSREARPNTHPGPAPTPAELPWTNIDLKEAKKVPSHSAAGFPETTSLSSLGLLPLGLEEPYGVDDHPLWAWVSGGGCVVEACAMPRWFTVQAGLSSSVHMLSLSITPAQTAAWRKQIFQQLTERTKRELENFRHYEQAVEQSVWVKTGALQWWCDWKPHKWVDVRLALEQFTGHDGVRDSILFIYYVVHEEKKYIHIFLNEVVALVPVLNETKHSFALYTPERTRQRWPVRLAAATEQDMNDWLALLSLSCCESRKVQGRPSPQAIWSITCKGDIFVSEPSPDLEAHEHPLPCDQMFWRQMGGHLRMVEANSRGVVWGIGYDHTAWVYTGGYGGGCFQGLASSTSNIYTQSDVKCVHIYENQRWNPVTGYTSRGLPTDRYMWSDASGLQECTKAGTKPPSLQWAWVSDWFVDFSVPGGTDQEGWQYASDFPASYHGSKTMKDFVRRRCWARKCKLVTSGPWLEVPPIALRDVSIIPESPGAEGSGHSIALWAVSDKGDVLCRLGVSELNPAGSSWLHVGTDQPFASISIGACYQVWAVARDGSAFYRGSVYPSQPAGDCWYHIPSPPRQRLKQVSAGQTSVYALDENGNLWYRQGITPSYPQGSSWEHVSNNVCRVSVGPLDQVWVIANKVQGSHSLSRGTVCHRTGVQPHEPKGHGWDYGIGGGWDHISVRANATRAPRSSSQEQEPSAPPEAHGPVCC
As to the kind of experiment: recruitment of SUVs to GUVs seen by fluorescence microscopy; reconstitution with purified proteins: Alexa488-LC3C conjugated to SUVs coincubated with GUVs decorated with TECPR1; GUVs without TECPR1 as control. Particulars: both partners purified.

B1: Alexa488-labeled LC3C conjugated to SUVs (natural protein, human, UniProt Q9BXW4 1-126, looked up)
chain: MPPPQKIPSVRPFKQRKSLAIRQEEVAGIRAKFPNKIPVVVERYPRETFLPPLDKTKFLVPQELTMTQFLSIIRSRMVLRATEAFYLLVNNKSLVSMSATMAEIYRDYKDEDGFVYMTYASQETFG
modifications: Alexa Fluor 488 C5 maleimide on the introduced N-terminal cysteine; conjugated to SUVs
For B1, the binding result is reported as “binds”.

These data come from publication PMC7293217, “TECPR1 promotes aggrephagy by direct recruitment of LC3C autophagosomes to lysosomes” (Nature Communications, 2020).
